Results on 7 compounds are retold here after paper PMC5146914.

A short description of the series: circular dichroism. The following applies: 10 mM PBS; pH 7.4; 25 °C; 50-800 uM. In general terms: Circular dichroism is widely used to follow secondary structure.
For the compound `CC(=O)N[C@H]1CCCCC[S@@](=O)C[C@@H](C(N)=O)NC(=O)[C@H](CCC(=O)O)NC(=O)[C@H](C)NC(=O)[C@H](CCCCN)NC1=O`, the helicity was found to be 31 rel %.
Then `CC(=O)N[C@H]1CCCCC[S@@](=O)C[C@@H](C(N)=O)NC(=O)[C@H](C)NC(=O)[C@H](CCC(N)=O)NC(=O)[C@H](C)NC1=O`, with 93 rel %; and `CC(=O)N[C@H]1CCCCC[S@@](=O)C[C@@H](C(N)=O)NC(=O)[C@H](C)NC(=O)[C@H](Cc2ccccc2)NC(=O)[C@H](C)NC1=O`, with 92 rel %.
Then `CC(=O)N[C@H]1CCCCC[S@@](=O)C[C@@H](C(N)=O)NC(=O)[C@H](C)NC(=O)CNC(=O)[C@H](C)NC1=O`, with 54 rel %.
Then `CC[C@H](C)[C@@H]1NC(=O)[C@H](C)NC(=O)[C@@H](NC(C)=O)CCCCC[S@@](=O)C[C@@H](C(N)=O)NC(=O)[C@H](C)NC1=O`, with 86 rel %; and `CC(=O)N[C@H]1CCCCC[S@@](=O)C[C@@H](C(N)=O)NC(=O)[C@H](C)NC(=O)[C@H](C)NC(=O)[C@H](C)NC1=O`, with 100 rel %; and `CC(=O)N[C@H]1CCCCC[S@@](=O)C[C@@H](C(N)=O)NC(=O)[C@H](C)NC(=O)[C@H](CO)NC(=O)[C@H](C)NC1=O`, with 65 rel %.
